Laboratory results: article PMC1635332

Key:
[1] = molecular target: T1, GA-1 DNA polymerase (Bacillus phage GA-1, UniProt Q96206 1-578); assay: EMSA
T1 sequence: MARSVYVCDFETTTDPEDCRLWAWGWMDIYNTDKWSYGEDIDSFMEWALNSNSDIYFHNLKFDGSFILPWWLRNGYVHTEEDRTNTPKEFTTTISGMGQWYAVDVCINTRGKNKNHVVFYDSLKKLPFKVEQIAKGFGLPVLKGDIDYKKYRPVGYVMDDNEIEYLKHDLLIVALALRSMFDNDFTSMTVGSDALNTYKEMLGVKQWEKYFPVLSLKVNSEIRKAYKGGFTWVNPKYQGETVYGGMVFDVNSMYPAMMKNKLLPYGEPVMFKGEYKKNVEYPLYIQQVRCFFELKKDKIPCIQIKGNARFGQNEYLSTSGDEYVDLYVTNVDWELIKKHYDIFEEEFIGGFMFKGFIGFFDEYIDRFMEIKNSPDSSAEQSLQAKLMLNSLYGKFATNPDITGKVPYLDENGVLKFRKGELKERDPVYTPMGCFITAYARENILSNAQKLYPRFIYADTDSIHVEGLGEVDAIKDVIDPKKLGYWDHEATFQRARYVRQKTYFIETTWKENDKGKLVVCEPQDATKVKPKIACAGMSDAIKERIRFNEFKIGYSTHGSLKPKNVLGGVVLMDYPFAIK

[2] = molecular target: T2, Nf DNA polymerase (Bacillus phage Nf, UniProt B7SSM2 1-572); assay: EMSA
T2 sequence: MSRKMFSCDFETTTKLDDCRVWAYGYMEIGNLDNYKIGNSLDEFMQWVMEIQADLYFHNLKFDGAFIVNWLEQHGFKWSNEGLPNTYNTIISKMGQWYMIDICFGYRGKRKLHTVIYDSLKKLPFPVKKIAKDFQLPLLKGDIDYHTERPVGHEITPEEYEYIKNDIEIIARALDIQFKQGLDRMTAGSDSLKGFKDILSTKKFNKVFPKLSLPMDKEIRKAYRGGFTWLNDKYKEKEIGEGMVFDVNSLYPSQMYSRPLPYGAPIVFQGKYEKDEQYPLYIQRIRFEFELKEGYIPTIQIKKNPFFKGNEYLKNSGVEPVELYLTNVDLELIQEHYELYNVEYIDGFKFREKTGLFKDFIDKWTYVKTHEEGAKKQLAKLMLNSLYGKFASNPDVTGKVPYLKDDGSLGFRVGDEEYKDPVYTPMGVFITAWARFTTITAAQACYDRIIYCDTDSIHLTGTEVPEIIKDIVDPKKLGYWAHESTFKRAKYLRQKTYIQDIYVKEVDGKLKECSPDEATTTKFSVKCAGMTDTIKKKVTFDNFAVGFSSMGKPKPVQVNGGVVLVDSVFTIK

B1: sp1/sp1c+6 (15/21mer primer/template) (dsDNA)
DNA 1: GATCACAGTGAGTAC
DNA 2: TCTATTGTACTCACTGTGATC
Q: Does B1 bind [1]?
A: Result: no binding

Q: And the Kd [2]?
A: The Kd was 1.5 nM.
